Earlier results as cited in PMC8329052.

Target: SARS-CoV-2 spike RBD RBD (SARS-CoV-2) (UniProt P0DTC2)

For “SBP1 (ACE2 alpha1 helix 23-mer peptide) 21-43 (from UniProt Q9BYF1)”, the Kd is listed as 47 nM.
